Measured values as given in PMC5588702 (Structure (London, England : 1993), 2014).

Target: DNA polymerase β polymerase domain with the V303M mutation (UniProt P06766 88-335, V303M, [methyl-13C]methionine labelled)
Assay: NMR

B1: oxidized form of the XRCC1 N-terminal domain, XRCC1(1-155), containing the C12-C20 disulfide bond (domain or fragment, human, UniProt P18887 2-155, looked up)
chain: PEIRLRHVVSCSSQDSTHCAENLLKADTYRKWRAAKAGEKTISVVLQLEKEEQIHSVDIGNDGSAFVEVLVGSSAGGAGEQDYEVLLVTSSFMSPSESRSGSNPNRVRMFGPDKLVRAAAEKRWDRVKIVCSQPYSKDSPFGLSFVRFHSPPDK
modifications: Cys12-Cys20 disulfide bond; N-terminal carbimate (CO2) adduct on Pro2; U-[15N] labelled
B1 was tested, and the “ratio KD(pol β•X1NTDred)/KD(pol β•X1NTDox)” value was 25.2.
